Here are results for ten molecules from article PMC7498317, “GapR binds DNA through dynamic opening of its tetrameric interface” (Nucleic Acids Research, 2020).

Substitutions are numbered along the chain they refer to.

The target of series [1] is T1, GapR (Caulobacter crescentus, UniProt B8H4R9 1-89).
T1 sequence: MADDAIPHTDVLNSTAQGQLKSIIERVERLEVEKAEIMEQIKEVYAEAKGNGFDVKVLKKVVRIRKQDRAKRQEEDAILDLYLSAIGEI
As to the kind of experiment: ITC; ITC: 50 mM sodium phosphate pH 7.0, 200 mM NaCl, 4 C; 25 uM GapR tetramer in cell, 0.25 mM DNA injected; NMR: 0.1 mM tetramer, 0.02-0.1 mM DNA. The following applies: protein: recombinant, tags: C-terminal His6 (pET-21a), chain copies: 4, blunt. For orientation: ITC needs no label: the signal is the heat of the interaction.

The next series deals with T2, GapR G87A (Caulobacter crescentus, UniProt B8H4R9 1-89, G87A).
T2 sequence: T1 sequence with G87A
Kind of series: NMR (1H-15N HSQC titration); minor peaks disappear on DNA addition; ITC: 50 mM sodium phosphate pH 7.0, 200 mM NaCl, 4 C; 25 uM GapR tetramer in cell, 0.25 mM DNA injected; NMR: 0.1 mM tetramer, 0.02-0.1 mM DNA. The note with it: protein: recombinant; tags: C-terminal His6 (pET-21a); chain copies: 4; blunt.

Series [2] concerns the molecule itself. Kind of series: cross-linking; 0.1 mM protein, EGS 0.5 and 1 mM, 50 mM sodium phosphate, 150 mM NaCl, pH 7.2, room temperature, 10 min; self-association.
Series [3] concerns the molecule itself. As to the kind of experiment: SEC; Superdex 75, 50 mM sodium phosphate pH 7.0, 150 mM NaCl; apparent molecular weight from the elution volume; self-association. For orientation: SEC sorts molecules by how far they enter the pores of the column.
Series [4] addresses T1, GapR. Kind of series: ITC; netropsin-bound DNA; ITC: 50 mM sodium phosphate pH 7.0, 200 mM NaCl, 4 C; 25 uM GapR tetramer in cell, 0.25 mM DNA injected; NMR: 0.1 mM tetramer, 0.02-0.1 mM DNA. The following applies: protein: recombinant; tags: C-terminal His6 (pET-21a); chain copies: 4; blunt.
Series [5] deals with the molecule itself. Kind of series: SEC-MALS; Superdex-75 HR 10/30, 50 mM sodium phosphate pH 7.0, 150 mM NaCl, 25°C; free GapR 0.5, 1.0 and 2.0 mg/mL, GapR^ΔC17 2.0 mg/ml; self-association.

B1: seq2 (dsDNA)
DNA 1: CGTGTTTTCGG
DNA 2: CCGAAAACACG
As a reminder, the Kd is a measure of binding affinity in units of concentration. On to B1, for which the Kd in the series with GapR [1] was found to be 72 ± 19 nM.

B2: 10A (dsDNA)
DNA 1: CCGAAAAAAAAAACGC
DNA 2: GCGTTTTTTTTTTCGG
On to B2, for which the Kd in the series with GapR [1] stood at 11.6 ± 2.5 nM. For the same molecule, in the series with GapR G87A, the binding result is on record as “binds”.

B3: GapR (growth-associated A/T-binding protein involved in regulation), full length, residues 1-89 (natural protein, C. crescentus, UniProt B8H4R9 1-89, looked up)
chain: T1 sequence
notes: GapR of Caulobacter crescentus, gene CCNA_03428, residues 1-89 (full length); theoretical monomer mass 11.2 kDa as printed; A selenomethionyl derivative was used for MAD phasing of the GapR/10A complex structure; 15N- or 13C-labelled for NMR; also called free GapR; full-length GapR; source: E. coli Rosetta (DE3), purified (Ni-NTA, size-exclusion chromatography on Superdex 75)
For orientation: stoichiometry N means the number of molecules, sites or subunits per partner or assembly. Turning to B3, the “stoichiometry N” value in series [2] was 4.

B4: seq1 (dsDNA)
DNA 1: GCGAAATTGATCG
DNA 2: CGATCAATTTCGC
Take B4: the Kd with GapR [1] was 72 ± 24 nM.

B5: GapR^ΔC8 (residues 1-81) (domain or fragment, C. crescentus, UniProt B8H4R9 1-81, looked up)
chain: MADDAIPHTDVLNSTAQGQLKSIIERVERLEVEKAEIMEQIKEVYAEAKGNGFDVKVLKKVVRIRKQDRAKRQEEDAILDL
notes: GapR of Caulobacter crescentus, gene CCNA_03428, residues 1-81; also called C-terminal truncation mutant; source: E. coli Rosetta (DE3), purified (Ni-NTA, size-exclusion chromatography)
On to B5, for which, in series [3], the “stoichiometry N” value turned out to be 2.

B6: 5ApT (dsDNA)
DNA 1: CCGATATATATATCGC
DNA 2: GCGATATATATATCGG
Regarding B6, the Kd with GapR [1] is 12.3 ± 8.9 nM; with GapR [4], 16.6 ± 4.5 nM.

B7: 6CpG (dsDNA)
DNA 1: CGCGCGCGCGCG
DNA 2: CGCGCGCGCGCG
With B7, the Kd in the series with GapR [1] (self-complementary) was 118 ± 17 nM.

B8: 11AT (dsDNA)
DNA 1: TTAAAATTAAA
DNA 2: TTTAATTTTAA
In the case of B8, the Kd in the series with GapR [1] was found to be 12.3 ± 4.5 nM.

B9: GapR^ΔC17 (residues 1-72) (domain or fragment, C. crescentus, UniProt B8H4R9 1-72, looked up)
chain: MADDAIPHTDVLNSTAQGQLKSIIERVERLEVEKAEIMEQIKEVYAEAKGNGFDVKVLKKVVRIRKQDRAKR
notes: GapR of Caulobacter crescentus, gene CCNA_03428, residues 1-72; theoretical dimer mass 18.6 kDa as printed; also called C-terminal truncation mutant; source: E. coli Rosetta (DE3), purified (Ni-NTA, size-exclusion chromatography)
On to B9, for which the “stoichiometry N” value in series [5] amounted to 2.

B10: GapR^ΔN10 (residues 11-89) (domain or fragment, C. crescentus, UniProt B8H4R9 11-89, looked up)
chain: VLNSTAQGQLKSIIERVERLEVEKAEIMEQIKEVYAEAKGNGFDVKVLKKVVRIRKQDRAKRQEEDAILDLYLSAIGEI
notes: GapR of Caulobacter crescentus, gene CCNA_03428, residues 11-89; pET-28a(+) with a thrombin-cleavable N-terminal His6-tag; the tag was removed by thrombin; also called N-terminal truncation mutant; source: E. coli Rosetta (DE3), purified (Ni-NTA, thrombin cleavage, size-exclusion chromatography); not shown: His6, N-terminal, cleaved
As for B10, the binding result in series [3] is recorded as “binds”.
